Results from the DeepSol protein solubility set.

Test: soluble on expression in E. coli; label from the status in PepcDB or PDB records

| Sequence | soluble on expression in E. coli |
| --- | --- |
| MGSDKIHHHHHHMDLNALTLLVDILDAGNLSKAAQRLKMSRANVSYRLNQLEKSIGLQLVRRTTRRIEPTEIGLRLYEHGRRIQSELFAAREAVTTLGQDLQGRVRLSVPSGYGQLVMSNWLIAFKRLYPGIVLDVVFENRIEDLMRDEVDIAVRVMSEPPQNLVARDMGAVRYVACASPGFAATHGMPTELGQLFDAPVITSTVVGRQLRVAAYLGDERHEVLLEPTLISENFLFLRQAILAGLGVGIVPDYVVHDDVRRGAVVTTLDAYRLSIFGTHMYMLYMPNRHHTRATSTFIDFMLEEARNAGRGG | not soluble |
| MGSDKIHHHHHHMDLPDSASRVFCGRILSMVNTDDVNAIILAQKNMLDRFEKTNEMLLNFNNLSSARLQQMSERFLHHTRTLVEMKRDLDSIFRRIRTLKGKLARQHPEAFSHIPEASFLEEEDEDPIPPSTTTTIATSEQSTGSCDTSPDTVSPSLSPGFEDLSHVQAGSPAINGRSQTDDEEMTGE | not soluble |
| MGSDKIHHHHHHMDLRQIKTFVVVAEELHFGRAAARLQIAQPAVTAQIQALERQLGVPLLIRSTRRVQLTEAGMIFNSRCIDILRDIDRTCLATQAVAGKDLHQITIGTIYPATFGVLPNFVSRINQRFPEARIHIHNGNTVGIVREIERGNINLGFIRPVENIGSLRWQSIHREKYLLAIARENPLSSKSTVTPDDLRKQKIIAFSRAYNSQTDDNFPEEFKKYDLNQQVVYSCNDTQAMLAMITAGIGVGFVPEWVKSIPGQNFELREVEGLERHIGLGLAWSVDDPTVNRDSIIELCRTLIGSEVDWPR | not soluble |
| MGSDKIHHHHHHMDLSSNRLAGKSILITRPLHQAGGLATWVRELGGEPWLFPVLEISDSENKQPLLDLIARLDEFDLAVFVSPNAVEKVIPLVQVSHSWPRHVLVATVGKGSARVLERYGITNVIVPEEGSDSEALLRMPQFQVMQGRHVVIFRGNDGRRLLGDTLRERGASVEYIECYRRHKPEADPLPLLKHWRDDGIQAVIISSSEGLDNLFDMIGETGQQLLKATPVFTAHERIERKARELGIRKIYRTLLGDEGTVQGLLEYFEKM | not soluble |
| MGSDKIHHHHHHMDNIKQLSRLIIFAEVVQQGSFTGAAKQLGITKSAVSQQIKSLEADMDIRVLNRTTRGVSTTALGQKLLSRCQVLKDQVDLIFKDIVNAEENPRGRFAITLPHSLESNVVMPAIEQLCIEYPGIEPEIIVSDSSLDLVENNLDVAIHAGDLPDSSYRALPIGTITEIFCATPLYLNKNFTPQKLSDLAQLKWISTSWQKQKMSVYNSTNKEKVTIELTQFSKVNTFSTALAMALRHLGLVLLPDNVAKPLIKSGELVHIMEQFTGPVWPVHTLHAYQREKPVHLTRFHQLLCNHFHNL | not soluble |
| MGSDKIHHHHHHMDQGDDGDGQTANADYSIRIAAGIGAFTCDEWNGFAGTTRSDAENGYNPLVSFAFLSALEDSGCAVRRTGWQGHHVRLETAQGRLLGAVPCYLKSHSQGEYVFDHGWSDAFERAGGRYYPKLQCAVPFTPVTGPRLLVNRGEDPDAVKAGLAAGLKMVTDKLGVSSAHVTFAQESDVATLEAAGFLHRTDQQFHFFNEGFSTYDDFLATLASRKRKAMKKERREALADGITIDWLTGKDLTEKAWDDFFAFYMDTGSRKWGRPYLNRQFFSLIGERMADDILLVMARRNGRYVAGAINFIGSDALYGRNWGCIEDHPFLHFEVCYHQAIDFAIERKLKVVEAGAQGEHKLARGYRPVTMHSAHYISHPGLRNAVADYLQRERREVERMGEYLEEHTPFRKDLEE | not soluble |
| MGSDKIHHHHHHMDRIIEKLDHGWWVVSHEQKLWLPKGELPYGERANFDLVGQRALQIGEWQGEPVWLVQQQRRHDMGSVRQVIDLDVGLFQLAGRGVQLAEFYRSHKYCGYCGHEMYPSKTEWAMLCSHCRERYYPQIAPCIIVAIRRDDSILLAQHTRHRNGVHTVLAGFVEVGETLEQAVAREVMEESGIKVKNLRYVTSQPWPFPQSLMTAFMAEYDSGDIVIDPKELLEANWYRYDDLPLLPPPGTVARRLIEDTVAMCRAEYE | not soluble |
| MGSDKIHHHHHHMDSMQTTETFQVLKIGADAYIKRRNQRLLSNHRKDLRKFTRAEAFTYLDIDAKTLDKYVATADFDPRRHEDSQWLINIEEMYQLRDLLPENLRKASKFKRSDNQKMQVIVIQNQKGGVGKTVSAATIASGLATEFHQEYRVGLIDMDGQATLSMYYAPEADLEGCLSVGDLMMNNFDLDEGETLEQVVSNAFLPTTIPNLRILPASQSDRAIEGWFHEQVFGQKLTSPYSLLNTIINAVQDEFDIIIIDTPPSLGYATYNAYFAATSVVFPLSITENDIDATCSYFSYIPQVWALLANANHRGYDFMKILITNHRDSATTTDLMNTLYDHFAPYMYSNEFKHSEAIRQSSSLLSTVFDMSKSEYPKSKATFQSAQQNCYEVTSQVLRDIVNVWREQEQA | not soluble |
| MGSDKIHHHHHHMDYTRYVVQPGDSIYKIANAYKIEMSDIINLNHLKHPDRIYPGQILLLPTYEFKDTLPGEIPEPNFTYAMWLFDVYAGKDSELSAVTTYLYQAVVLDRPEFDELLRPIAYDELRHLEQLAWCIRFLGVDPRYGSFSKGRWFDWRSRYLNYSTELCVILDHNMKDEAAAVKHYTDLAQKIPIPEIQTILLQLAADEERHYQCLAQAKTRFCGCGSSQTQHIKESSNGEEL | not soluble |
| MGSDKIHHHHHHMEENIWWRGKDYIEEDEDIKKWNSAKFKWIPKEINKISLQPFSLNFIVGPRQVGKTTLIKLLIKKLLESNHNPLSIFYCSCDLVSDYEELLKRTRDYLKIRKQEGIKSSFIFLDEVTFVKEWYRAVKHLIDTGELTSDVVTVSGSSSLTILKQKESFPGRRGNGTDVILYPLSFSGYINVINPKIEVRPGWYSEIEELFESYLKVGGLPPSINGLSPLKTYTEWIIYEINRVGRDEMLAKQILSAVLSTTPSKVSYNSIAKEIGVNHRTVAEYIKLFNDMFLTLTLHFIDVNTGYYNYRKQIKIHFVDPLFYDVMSTWTGVKRPDDPIIVEGIVASHLSRIYSIGYTEVGKEEIDVVTLPEVIGYEVKYRERTKQVKVIAGKMKKVITLSKHGENDTFPVHLFLAELNI | not soluble |
| MGSDKIHHHHHHMEFDQAKKIVVATIIDQQGLSDRLVGCKAIITSTGRLSYSIPLAWVRERLEVLIRESLYRGSFEVISLANPNDTRQKATLMIDPYLPPQELIILGGGHIAQPLAKIGKLLGYQVAVLDDRPEFVSKDRFPEADKTICCSFDTVENSFDLGPQSNVVIVTRGHQHDLLCLRQMLKYPLAYLGMIGSRRKVAIIRERLLEEGLAVKKLNSVYMPIGLDIGAQTPAEIAVSITAELIKVRRGGKAASIKNIDKKNNDNEAGVFNLGELPSTIDQEILQLTLQAAINHVPAALATVVSTKGSTPRKAGAHMLVWADGRSLGTVGGGQGEAKVRAEAFKIINTSQPILYRISMDAANAAMEGMICGGSMEVFIEPVNGFAQVSGGGGIL | not soluble |
| MGSDKIHHHHHHMEFWESSFIEKQTMWGFEPTESAILAKDFFLEKNVKDILVPGIGYGRNAKVFIENSINVTGIEISKTAIDLARENGLEDVSIYHGSVNEMPFDNKLYDGIFSHALLHLLNDQEREGFIENCYNQLKPGAYMVFTTVSKKAPMYGKGKQLDKDYYEIMEGVKMFFYDSESIKKDFNQYGLVQVSEIDEPNKNMANKPSINFLTIKCKKEL | not soluble |
| MGSDKIHHHHHHMEHIQSSIEKILNRPDVAESVRAIHQRVLSHPGVIMFLRTHPEIDQRMIERGMLKLNEYAEQMNGNQIIEKKAVIEGYQPVLHLEKGQIMVAYEKTQALRDRENERALEKKFKSLFLPDEVRDANFSDFDLTTTDRKLALRAASQFLNTVRSKQQVKGLYLHGSFGVGKTYLLAAIGNALKKERVATILVHAPGFVSEAKRRIRSDSFDTFLESFQTVPVLLIDDIGAESISPWVRDELFGIILQYRMMHRLPTLFSSNLSYDELELHFGITNDQGDKLKAMRLMERIRTTTNPVEFLGENRRRY | not soluble |
| MGSDKIHHHHHHMEISMRFTDINQERERILSCPVPGYFPRKDSFLELERLIGLREVKRTLAEVAAFTLIQNRRSELRLKSDPTALHMVFKGNPGTGKTTVARILGRVFNEIGILSKGHLLEVERADLVGEYIGHTAQKTREILKRAMGGIVFIDEAYSLAQGGERDFGKEAISTLVKAMEDYRDNLVVILAGYSQEIDRFLKSNPGLRSRFPIHIDFCDYNAEELFQIALQIYQEREYELTSRCRWKLKQQLNEFVKNRHSHSGNARYVRNLAEKSIRLQALRIVDKDAPVRRDLVTIEEADLPDPRSIQA | not soluble |
| MGSDKIHHHHHHMEKIIEINDSIIQISDLNDRIYIMKLGKDVGELIKHVDSVCNEKKLSKVFAKVSGNKKELFEKNGYICEGKLENYYSNDDAYFMSKFFEESRKISKFSKEAEDVLNYVKTVGVNPHTKIDEKFHLKIANETDAEKLSKHYSKVFKTYPFPIDDPNYILKTMQTNVKYFIIEDNGKIVAASSCEMDIKNKCVEMTDFAVLEEYQKLGLSKYLLYIMEKIMKDNGYRVFYTIARSISYGMNITFKKMGYMYSGTAVNNTNICGNFEDMNFWYKLSE | not soluble |
| MGSDKIHHHHHHMEKILLVDDEQFVLDGLKRQLRRKYAIHTADGGEKGLQLIQSDGPFAVVVSDMRMPEMNGIEFLTQVRRVAPDSIRIMLTGYADQKTAINAINEGAIFRFLTKPCSLENLTVALDAALDQYRLITAEKELLEKTLKGSIKVLVDILSLSAPAAFSQATRLRKYAAQIVARLEFPDSWQYEIAALLSSIGFVNIPPETITKHLIGEKLTGREQEMIDAVPETAGMLLANIPRLSAVALMINRQNTPCSEPTAFKNGDFHEAVRIGANLLKVLTDFDILLIRNYEPEEAIRIMSERIGLYDRTLLNMLAILDLPRRDQGVRNIRIDDLREGMIIDADIRNTHGILVVPKGYEVNESTCQRLKNFLIRQTGAETVRVLMPVYAEEESQ | not soluble |
| MGSDKIHHHHHHMEKKVICQDIFWSCDGTSFVSVHNDFGIRQYLVPEESNTDKLNRNLLLPFTRFFRNQSIVSCAIDPFYTLYNENSDRLAGDRIVVGGKNFPLQLYSLMDGQCILSYDTMNKINGEYETVYSVKIDVESRVYTGSCRNKVAIYDKSRRDAVWMNQSTKKASKGRQSIISCFEEQPMGGQALSRGSLLCGSYANEMFQVDCRHQRLERLNYTRTVAGGIVQILTSDNGRYVYVVRRNSDAISIYDRRNLQHELNVLRLPFRIHHNSAKLKAYIDTAYGLSMGTPQGTILNWGRDLVEFGGVPSHNSVEDPLITSIPPESEWRTNLDSTIPATVVKNCPGDPELFALSHGGTISLCRFGG | not soluble |
| MGSDKIHHHHHHMEKSKYKRDWSKYDENVITRYKLMFPFYVFEHWWDLLAEENRNARTKYKAPKEFNEFLAFLHIFLPYRAIEGVLRALEQLKIIPTSLDYSTIWERVRNMNITFPETSDELEVIADATGISTNTGGQYIVAKWGKTRDSKFLKIEIVMDNNEFNVINAEVTSNEVESAVKTVKDLQDKGKKVKKFYGDKAYDANEVYKTGVEVVVPPKKNASTKRHLARRKAVREFRKLGYDRWKEEKGYGVRWRVESLFSAVKRTFGESVRQVLLGK | not soluble |
| MGSDKIHHHHHHMEKTVQLEHMNTRVFVEGAYDTALIPLGSCESHGDHLPFAMDALTAHKLALGVAERMEKVFVLPPTFFGFSQHYWHKPMSISLSQDTNIRVIADILDSLAHWKIRNVLIINGHDGNISAIDVAARAARLRHPDMKIGSLDAWWVTAGNLLPKDTFEVWNGLGHGGEGETSIGLACFPELVDMAHARGMIPEVDENVKELWDFSELTDYGATGAPEKATREKGQAMYDVLVDYLVAYLTKRRDTNWAYNPK | not soluble |
